Laboratory results published in patent US20140274782A1, “AFFINITY REAGENTS AND METHODS FOR DETECTION, PURIFICATION, AND PROTEOMIC ANALYSIS OF METHYLATED PROTEINS” (The Board of Trustees of the Leland Stanford Junior …, priority 2013, published 2014).

B1: EEF1D (protein, UniProt P29692 2-281, looked up)
Elongation factor 1-delta: ATNFLAHEKIWFDKFKYDDAERRFYEQMNGPVAGASRQENGASVILRDIARARENIQKSLAGSSGPGASSGTSGDHGELVVRIASLEVENQSLRGVVQELQQAISKLEARLNVLEKSSPGHRATAPQTQHVSPMRQVEPPAKKPATPAEDDEDDDIDLFGSDNEEEDKEAAQLREERLRQYAEKKAKKPALVAKSSILLDVKPWDDETDMAQLEACVRSIQLDGLVWGASKLVPVGYGIRKLQIQCVVEDDKVGTDLLEEEITKFEEHVQSVDIAAFNKI
B2: ZC3HAV1L (protein, UniProt Q96H79 2-300, looked up)
Zinc finger CCCH-type …: AEPTVCSFLTKVLCAHGGRMFLKDLRGHVELSEARLRDVLQRAGPERFLLQEVETQEGLGDAEAEAAAGAVGGGGTSAWRVVAVSSVRLCARYQRGECQACDQLHFCRRHMLGKCPNRDCWSTCTLSHDIHTPVNMQVLKSHGLFGLNENQLRILLLQNDPCLLPEVCLLYNKGEALYGYCNLKDKCNKFHVCKSFVKGECKLQTCKRSHQLIHAASLKLLQDQGLNIPSVVNFQIISTYKHMKLHKMLENTDNSSPSTEHSQGLEKQGVHAAGAAEAGPLASVPAQSAKKPCPVSCEK
B3: C22orf28 (protein, UniProt Q9Y3I0 1-505, looked up)
RNA-splicing ligase RtcB …: MSRSYNDELQFLEKINKNCWRIKKGFVPNMQVEGVFYVNDALEKLMFEELRNACRGGGVGGFLPAMKQIGNVAALPGIVHRSIGLPDVHSGYGFAIGNMAAFDMNDPEAVVSPGGVGFDINCGVRLLRTNLDESDVQPVKEQLAQAMFDHIPVGVGSKGVIPMNAKDLEEALEMGVDWSLREGYAWAEDKEHCEEYGRMLQADPNKVSARAKKRGLPQLGTLGAGNHYAEIQVVDEIFNEYAAKKMGIDHKGQVCVMIHSGSRGLGHQVATDALVAMEKAMKRDKIIVNDRQLACARIASPEGQDYLKGMAAAGNYAWVNRSSMTFLTRQAFAKVFNTTPDDLDLHVIYDVSHNIAKVEQHVVDGKERTLLVHRKGSTRAFPPHHPLIAVDYQLTGQPVLIGGTMGTCSYVLTGTEQGMTETFGTTCHGAGRALSRAKSRRNLDFQDVLDKLADMGIAIRVASPKLVMEEAPESYKNVTDVVNTCHDAGISKKAIKLRPIAVIKG
B4: SNRPA1 (protein, UniProt P09661 2-255, looked up)
U2 small nuclear …: VKLTAELIEQAAQYTNAVRDRELDLRGYKIPVIENLGATLDQFDAIDFSDNEIRKLDGFPLLRRLKTLLVNNNRICRIGEGLDQALPCLTELILTNNSLVELGDLDPLASLKSLTYLSILRNPVTNKKHYRLYVIYKVPQVRVLDFQKVKLKERQEAEKMFKGKRGAQLAKDIARRSKTFNPGAGLPTDKKKGGPSPGDVEAIKNAIANASTLAEVERLKGLLQSGQIPGRERRSGPTDDGEEEMEEDTVTNGS
B5: EIF4E2 (protein, UniProt O60573 1-245, looked up)
Eukaryotic translation …: MNNKFDALKDDDSGDHDQNEENSTQKDGEKEKTERDKNQSSSKRKAVVPGPAEHPLQYNYTFWYSRRTPGRPTSSQSYEQNIKQIGTFASVEQFWRFYSHMVRPGDLTGHSDFHLFKEGIKPMWEDDANKNGGKWIIRLRKGLASRCWENLILAMLGEQFMVGEEICGAVVSVRFQEDIISIWNKTASDQATTARIRDTLRRVLNLPPNTIMEYKTHTDSIKMPGRLGPQRLLFQNLWKPRLNVP
B6: RBM26 (protein, UniProt Q5T8P6 1-1007, looked up)
RNA-binding protein 26: MVSKMIIENFEALKSWLSKTLEPICDADPSALAKYVLALVKKDKSEKELKALCIDQLDVFLQKETQIFVEKLFDAVNTKSYLPPPEQPSSGSLKVEFFPHQEKDIKKEEITKEEEREKKFSRRLNHSPPQSSSRYRENRSRDERKKDDRSRKRDYDRNPPRRDSYRDRYNRRRGRSRSYSRSRSRSWSKERLRERDRDRSRTRSRSRTRSRERDLVKPKYDLDRTDPLENNYTPVSSVPSISSGHYPVPTLSSTITVIAPTHHGNNTTESWSEFHEDQVDHNSYVRPPMPKKRCRDYDEKGFCMRGDMCPFDHGSDPVVVEDVNLPGMLPFPAQPPVVEGPPPPGLPPPPPILTPPPVNLRPPVPPPGPLPPSLPPVTGPPPPLPPLQPSGMDAPPNSATSSVPTVVTTGIHHQPPPAPPSLFTADTYDTDGYNPEAPSITNTSRPMYRHRVHAQRPNLIGLTSGDMDLPPREKPPNKSSMRIVVDSESRKRTIGSGEPGVPTKKTWFDKPNFNRTNSPGFQKKVQFGNENTKLELRKVPPELNNISKLNEHFSRFGTLVNLQVAYNGDPEGALIQFATYEEAKKAISSTEAVLNNRFIKVYWHREGSTQQLQTTSPKVMQPLVQQPILPVVKQSVKERLGPVPSSTIEPAEAQSASSDLPQNVTKLSVKDRLGFVSKPSVSATEKVLSTSTGLTKTVYNPAALKAAQKTLLVSTSAVDNNEAQKKKQEALKLQQDVRKRKQEILEKHIETQKMLISKLEKNKTMKSEDKAEIMKTLEVLTKNITKLKDEVKAASPGRCLPKSIKTKTQMQKELLDTELDLYKKMQAGEEVTELRRKYTELQLEAAKRGILSSGRGRGIHSRGRGAVHGRGRGRGRGRGVPGHAVVDHRPRALEISAFTESDREDLLPHFAQYGEIEDCQIDDSSLHAVITFKTRAEAEAAAVHGARFKGQDLKLAWNKPVTNISAVETEEVEPDEEEFQEESLVDDSLLQDDDEEEEDNESRSWRR

system: 3×MBT domain of L3MBTL1; experiment: Triple SILAC pull-down, 3xMBT/3xMBTD355N ratio (cytoplasmic, nuclear and chromatin fractions of 293T cells); type: binding, human; details: SILAC ratio, pull-down 3xMBT vs 3xMBTD355N; experiment with UNC0638 in heavy SILAC media;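 also: proteins quantified with MaxQuant, requiring at least two unique peptides and quantification in both label directions, normalized to the mean of proteins from a digested loading control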

Compared with B1, B2 is lower in “3xMBT/D355N UNC Heavy” value: 3.34 log base 2 for the first, 1.71 log base 2 for the second.

Going from B3 to B4, the “3xMBT/D355N UNC Heavy” value rises from 2.49 log base 2 to 2.94 log base 2.

Going from B5 to B6, the “3xMBT/D355N UNC Heavy” value rises from 1.89 log base 2 to 2.44 log base 2.

same assay, conditions: SILAC ratio, pull-down 3xMBT vs 3xMBTD355N; experiment with UNC0638 in light SILAC media

Compared with B1, B2 is lower in “3xMBT/D355N UNC Light” value: 3.56 log base 2 for the first, 2.00 log base 2 for the second.

Going from B3 to B4, the “3xMBT/D355N UNC Light” value rises from 2.67 log base 2 to 3.39 log base 2.

First: B5
Second: B6
The “3xMBT/D355N UNC Light” value of the first is higher: 2.26 log base 2 for the first, 2.00 log base 2 for the second.

target: T1, G9a and GLP (Homo sapiens, UniProt Q96KQ7+Q9H9B1); experiment: Triple SILAC pull-down after UNC0638 treatment of 293T cells, DMSO/UNC0638 ratio of protein captured by 3×MBT; type: cell-based; set-up: endogenous in cells; host or cells: HEK 293T; details: SILAC ratio DMSO/UNC0638 of protein pulled down with 3xMBT; UNC0638 in heavy SILAC media;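 also: mass spectrometry (Q-Exactive) SILAC quantitation, DMSO/UNC0638 ratio computed after subtracting 3×MBTD355N mutant pull-down background, only proteins with at least twofold 3×MBT over mutant signal considered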
T1 sequence (Q96KQ7 2-1210 limits assumed): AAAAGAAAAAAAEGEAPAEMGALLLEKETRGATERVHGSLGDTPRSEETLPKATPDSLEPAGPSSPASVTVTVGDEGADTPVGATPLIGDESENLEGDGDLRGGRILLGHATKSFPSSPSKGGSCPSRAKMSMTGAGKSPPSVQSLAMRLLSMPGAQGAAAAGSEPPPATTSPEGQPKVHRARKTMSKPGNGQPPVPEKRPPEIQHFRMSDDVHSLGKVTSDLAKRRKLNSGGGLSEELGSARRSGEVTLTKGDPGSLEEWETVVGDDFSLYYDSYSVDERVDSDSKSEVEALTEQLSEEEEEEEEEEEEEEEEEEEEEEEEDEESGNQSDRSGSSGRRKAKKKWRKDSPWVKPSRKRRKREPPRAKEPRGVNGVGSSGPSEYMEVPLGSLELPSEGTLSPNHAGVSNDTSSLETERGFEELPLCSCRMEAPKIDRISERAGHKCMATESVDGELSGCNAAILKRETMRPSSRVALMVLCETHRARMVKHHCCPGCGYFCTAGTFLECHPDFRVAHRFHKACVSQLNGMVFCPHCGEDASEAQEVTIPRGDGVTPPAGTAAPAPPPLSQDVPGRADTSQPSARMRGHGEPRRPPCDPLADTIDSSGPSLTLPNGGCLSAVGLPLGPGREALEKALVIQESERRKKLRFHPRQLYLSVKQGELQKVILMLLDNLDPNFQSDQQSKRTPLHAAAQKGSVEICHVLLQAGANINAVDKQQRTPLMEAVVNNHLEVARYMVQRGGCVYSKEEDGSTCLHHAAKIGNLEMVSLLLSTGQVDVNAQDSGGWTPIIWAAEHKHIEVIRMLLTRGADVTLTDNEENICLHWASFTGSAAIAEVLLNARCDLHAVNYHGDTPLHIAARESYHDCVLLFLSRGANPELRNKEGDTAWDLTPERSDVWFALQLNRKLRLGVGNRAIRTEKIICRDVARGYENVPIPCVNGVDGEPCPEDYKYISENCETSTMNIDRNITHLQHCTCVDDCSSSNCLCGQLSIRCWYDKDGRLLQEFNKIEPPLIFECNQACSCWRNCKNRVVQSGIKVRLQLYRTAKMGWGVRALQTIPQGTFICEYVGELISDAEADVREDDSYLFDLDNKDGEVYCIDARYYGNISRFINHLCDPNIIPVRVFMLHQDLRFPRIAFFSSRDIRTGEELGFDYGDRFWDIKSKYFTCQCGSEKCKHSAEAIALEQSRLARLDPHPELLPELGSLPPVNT
T1 sequence (Q9H9B1 2-1298 limits assumed): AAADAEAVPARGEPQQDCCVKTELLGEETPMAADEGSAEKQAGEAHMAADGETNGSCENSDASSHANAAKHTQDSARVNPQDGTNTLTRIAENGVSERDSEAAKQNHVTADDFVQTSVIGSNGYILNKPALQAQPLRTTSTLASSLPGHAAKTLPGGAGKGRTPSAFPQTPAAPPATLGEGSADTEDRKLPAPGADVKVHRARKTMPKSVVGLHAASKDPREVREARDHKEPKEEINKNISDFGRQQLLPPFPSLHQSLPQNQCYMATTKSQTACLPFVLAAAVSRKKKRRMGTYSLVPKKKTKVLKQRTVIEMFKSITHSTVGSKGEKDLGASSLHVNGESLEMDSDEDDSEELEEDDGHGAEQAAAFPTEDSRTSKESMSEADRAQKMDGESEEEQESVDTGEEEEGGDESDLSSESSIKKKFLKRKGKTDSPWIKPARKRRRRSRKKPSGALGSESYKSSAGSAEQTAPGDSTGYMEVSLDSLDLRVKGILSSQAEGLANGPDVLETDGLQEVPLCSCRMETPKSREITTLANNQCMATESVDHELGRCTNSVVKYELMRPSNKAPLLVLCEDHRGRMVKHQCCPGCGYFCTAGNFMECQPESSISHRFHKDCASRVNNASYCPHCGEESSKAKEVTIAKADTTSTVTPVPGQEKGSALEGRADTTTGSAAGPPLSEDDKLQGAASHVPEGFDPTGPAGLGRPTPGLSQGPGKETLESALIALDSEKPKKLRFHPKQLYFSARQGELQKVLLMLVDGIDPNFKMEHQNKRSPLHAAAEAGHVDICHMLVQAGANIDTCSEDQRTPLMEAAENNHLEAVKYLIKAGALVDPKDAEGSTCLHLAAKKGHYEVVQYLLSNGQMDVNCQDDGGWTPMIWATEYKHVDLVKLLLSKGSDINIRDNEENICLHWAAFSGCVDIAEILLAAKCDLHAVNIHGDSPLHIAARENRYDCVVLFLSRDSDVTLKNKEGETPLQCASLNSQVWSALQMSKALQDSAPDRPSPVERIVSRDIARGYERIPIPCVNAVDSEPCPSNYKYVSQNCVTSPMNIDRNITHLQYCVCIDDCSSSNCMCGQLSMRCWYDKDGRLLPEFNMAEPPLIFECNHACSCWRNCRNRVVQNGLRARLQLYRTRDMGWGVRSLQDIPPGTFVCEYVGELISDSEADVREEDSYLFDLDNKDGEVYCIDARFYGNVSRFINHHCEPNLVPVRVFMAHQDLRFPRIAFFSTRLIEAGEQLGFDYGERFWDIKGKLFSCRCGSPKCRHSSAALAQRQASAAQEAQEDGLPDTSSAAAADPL

Compared with B1, B2 is higher in “Relative to UNC0638 UNC Heavy” value: 0.11 log base 2 for the first, 0.14 log base 2 for the second.

B3 and B4 are the same in “Relative to UNC0638 UNC Heavy” value: 0.08 log base 2 for the first, 0.08 log base 2 for the second.

First: B5
Second: B6
The “Relative to UNC0638 UNC Heavy” value of the first is higher: 0.24 log base 2 for the first, 0.21 log base 2 for the second.

same assay, conditions: SILAC ratio DMSO/UNC0638 of protein pulled down with 3xMBT; UNC0638 in light SILAC media

Going from B1 to B2, the “Relative to UNC0638 UNC Light” value falls from 0.20 log base 2 to 0.16 log base 2.

B3 and B4 are the same in “Relative to UNC0638 UNC Light” value: 0.22 log base 2 for the first, 0.22 log base 2 for the second.

First: B5
Second: B6
The “Relative to UNC0638 UNC Light” value of the first is lower: 0.06 log base 2 for the first, 0.08 log base 2 for the second.

same assay, conditions: average of UNC Light and UNC Heavy experiments

B1 and B2 are the same in “Relative to UNC0638 Average” value: 0.15 log base 2 for the first, 0.15 log base 2 for the second.

B3 and B4 are the same in “Relative to UNC0638 Average” value: 0.15 log base 2 for the first, 0.15 log base 2 for the second.

First: B5
Second: B6
The “Relative to UNC0638 Average” value of the first is higher: 0.15 log base 2 for the first, 0.14 log base 2 for the second.
